Results as given in US20180155451A1 (published 2018).

T1: FcγRIIa R (FcγRIIa, allotype R: Arg at position 131) extracellular domain with C-terminal His tag (human, UniProt P12318 34-217)
T1 construct: extracellular domain; also called FcgRIIa R; 2aR; not shown: His tag at the C terminus
T1 sequence (looked up): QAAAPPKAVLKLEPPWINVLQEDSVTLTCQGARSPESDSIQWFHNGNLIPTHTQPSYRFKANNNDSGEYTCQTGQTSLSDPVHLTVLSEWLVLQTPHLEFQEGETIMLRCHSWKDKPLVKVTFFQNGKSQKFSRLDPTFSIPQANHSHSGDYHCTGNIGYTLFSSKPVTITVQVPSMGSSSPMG

T2: FcγRIIb extracellular domain with C-terminal His tag (human, UniProt P31994 43-217)
T2 construct: extracellular domain; also called FcgRIIb; 2b; not shown: His tag at the C terminus
T2 sequence (looked up): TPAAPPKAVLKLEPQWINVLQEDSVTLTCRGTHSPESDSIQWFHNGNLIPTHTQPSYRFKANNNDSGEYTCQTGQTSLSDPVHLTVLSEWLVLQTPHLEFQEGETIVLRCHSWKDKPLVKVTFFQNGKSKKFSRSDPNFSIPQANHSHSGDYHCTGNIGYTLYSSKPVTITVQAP

B1: GpH7-B3 variant S337_08L/GpL16-k0 (antibody, human IgG1, kappa)
heavy: not shown
light: DIVMTQSPLSLPVTPGEPASISCQASESLVHSNRNTYLHWYLQKPGQSPQLLIYKVSNRFSGVPDRFSGSGSGTDFTLKISRVEAEDVGVYYCSQNTHVPPTFGQGTKVEIERTVAAPSVFIFPPSDEQLKSGTASVVCLLNNFYPREAKVQWKVDNALQSGNSQESVTEQDSKDSTYSLSSTLTLSKADYEKHKVYACEVTHQGLSSPVTKSFNRGEC
notes: homodimerized, mutation in both H chains; also called Ho Ab
B2: GpH7-B3 variant H268_18N/GpL16-k0 (antibody, human IgG1, kappa)
heavy: not shown
light: B1 light
notes: as for B1
B3: GpH7-B3 variant T335_18N/GpL16-k0 (antibody, human IgG1, kappa)
heavy: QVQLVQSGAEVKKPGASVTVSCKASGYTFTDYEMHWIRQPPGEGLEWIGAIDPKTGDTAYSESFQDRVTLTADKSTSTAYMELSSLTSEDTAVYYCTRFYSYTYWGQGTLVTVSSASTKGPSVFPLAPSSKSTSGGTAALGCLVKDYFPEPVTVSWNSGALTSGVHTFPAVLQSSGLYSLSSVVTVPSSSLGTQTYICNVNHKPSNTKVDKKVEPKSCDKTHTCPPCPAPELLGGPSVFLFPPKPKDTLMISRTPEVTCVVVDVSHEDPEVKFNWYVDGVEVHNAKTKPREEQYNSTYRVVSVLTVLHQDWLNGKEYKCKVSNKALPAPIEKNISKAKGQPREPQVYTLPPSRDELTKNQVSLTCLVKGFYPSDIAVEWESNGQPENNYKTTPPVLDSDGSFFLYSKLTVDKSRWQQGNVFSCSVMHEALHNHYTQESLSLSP
light: B1 light
notes: as for B1
B4: GpH7-B3 variant S337_20W/GpL16-k0 (antibody, human IgG1, kappa)
heavy: not shown
light: B1 light
notes: as for B1
B5: GpH7-B3 variant K326_10E/GpL16-k0 (antibody, human IgG1, kappa)
heavy: not shown
light: B1 light
notes: as for B1
B6: GpH7-B3 variant T335_20W/GpL16-k0 (antibody, human IgG1, kappa)
heavy: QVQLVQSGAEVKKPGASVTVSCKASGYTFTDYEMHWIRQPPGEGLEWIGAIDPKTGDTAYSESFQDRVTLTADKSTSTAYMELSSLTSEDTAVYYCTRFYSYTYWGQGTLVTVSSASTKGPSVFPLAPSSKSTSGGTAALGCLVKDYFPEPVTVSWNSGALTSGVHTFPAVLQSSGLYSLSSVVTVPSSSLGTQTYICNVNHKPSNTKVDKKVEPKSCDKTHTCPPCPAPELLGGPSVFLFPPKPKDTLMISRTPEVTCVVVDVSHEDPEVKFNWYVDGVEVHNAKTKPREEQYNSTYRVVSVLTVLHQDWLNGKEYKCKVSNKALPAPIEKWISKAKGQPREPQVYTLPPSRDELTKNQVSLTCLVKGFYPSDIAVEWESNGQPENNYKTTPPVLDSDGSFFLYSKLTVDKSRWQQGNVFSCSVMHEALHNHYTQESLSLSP
light: B1 light
notes: as for B1
B7: GpH7-B3 variant H268_02A/GpL16-k0 (antibody, human IgG1, kappa)
heavy: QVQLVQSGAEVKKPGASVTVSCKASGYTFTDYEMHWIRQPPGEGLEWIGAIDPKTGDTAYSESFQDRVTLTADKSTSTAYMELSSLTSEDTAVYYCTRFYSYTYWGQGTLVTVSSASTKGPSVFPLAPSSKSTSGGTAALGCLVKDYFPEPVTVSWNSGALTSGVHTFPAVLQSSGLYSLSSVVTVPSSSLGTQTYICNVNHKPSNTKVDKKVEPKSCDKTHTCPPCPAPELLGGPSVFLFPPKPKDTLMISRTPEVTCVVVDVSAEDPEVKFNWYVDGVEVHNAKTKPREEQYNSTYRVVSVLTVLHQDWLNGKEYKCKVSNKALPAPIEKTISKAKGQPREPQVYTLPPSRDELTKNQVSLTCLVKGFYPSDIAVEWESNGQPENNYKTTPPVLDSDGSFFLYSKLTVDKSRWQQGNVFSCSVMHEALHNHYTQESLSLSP
light: B1 light
notes: as for B1
B8: GpH7-B3 variant K334_04F/GpL16-k0 (antibody, human IgG1, kappa)
heavy: not shown
light: B1 light
notes: as for B1
B9: GpH7-B3 variant S239_09D/GpL16-k0 (antibody, human IgG1, kappa)
heavy: not shown
light: B1 light
notes: as for B1
B10: GpH7-B3 variant K326_19Q/GpL16-k0 (antibody, human IgG1, kappa)
heavy: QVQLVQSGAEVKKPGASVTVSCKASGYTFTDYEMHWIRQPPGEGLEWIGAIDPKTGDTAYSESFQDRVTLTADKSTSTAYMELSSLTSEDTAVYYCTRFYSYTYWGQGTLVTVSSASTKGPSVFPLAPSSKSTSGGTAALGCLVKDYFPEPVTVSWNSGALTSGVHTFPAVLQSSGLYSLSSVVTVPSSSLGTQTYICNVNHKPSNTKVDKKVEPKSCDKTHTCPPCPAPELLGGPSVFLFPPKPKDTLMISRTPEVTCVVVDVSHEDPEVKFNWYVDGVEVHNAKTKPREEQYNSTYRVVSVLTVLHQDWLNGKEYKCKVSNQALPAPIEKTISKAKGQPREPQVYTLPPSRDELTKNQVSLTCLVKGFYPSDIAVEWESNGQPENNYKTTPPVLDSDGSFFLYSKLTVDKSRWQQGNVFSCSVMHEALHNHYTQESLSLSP
light: B1 light
notes: as for B1
B11: GpH7-B3 variant L235_04F/GpL16-k0 (antibody, human IgG1, kappa)
heavy: not shown
light: B1 light
notes: as for B1
B12: GpH7-B3 variant E333_09D/GpL16-k0 (antibody, human IgG1, kappa)
heavy: not shown
light: B1 light
notes: as for B1
B13: GpH7-B3 variant L328_14T/GpL16-k0 (antibody, human IgG1, kappa)
heavy: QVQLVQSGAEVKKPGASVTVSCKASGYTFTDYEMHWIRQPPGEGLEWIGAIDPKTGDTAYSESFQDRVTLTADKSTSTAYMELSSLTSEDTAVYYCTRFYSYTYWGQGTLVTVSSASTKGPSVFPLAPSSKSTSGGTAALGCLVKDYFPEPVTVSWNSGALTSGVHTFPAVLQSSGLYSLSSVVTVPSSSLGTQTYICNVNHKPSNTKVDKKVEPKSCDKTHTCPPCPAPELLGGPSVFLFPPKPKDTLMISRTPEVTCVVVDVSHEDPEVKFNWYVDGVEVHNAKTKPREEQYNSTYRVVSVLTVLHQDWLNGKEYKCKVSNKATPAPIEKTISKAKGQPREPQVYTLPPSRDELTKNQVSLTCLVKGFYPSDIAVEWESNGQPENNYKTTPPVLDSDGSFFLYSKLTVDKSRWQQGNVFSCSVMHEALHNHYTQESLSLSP
light: B1 light
notes: as for B1
B14: GpH7-B3 variant Y296_04F/GpL16-k0 (antibody, human IgG1, kappa)
heavy: not shown
light: B1 light
notes: as for B1
B15: GpH7-B3 variant I336_06M/GpL16-k0 (antibody, human IgG1, kappa)
heavy: not shown
light: B1 light
notes: as for B1
B16: GpH7-B3 variant K326_06M/GpL16-k0 (antibody, human IgG1, kappa)
heavy: not shown
light: B1 light
notes: as for B1
B17: GpH7-B3 variant L328_20W/GpL16-k0 (antibody, human IgG1, kappa)
heavy: not shown
light: B1 light
notes: as for B1
B18: GpH7-B3 variant K334_08L/GpL16-k0 (antibody, human IgG1, kappa)
heavy: not shown
light: B1 light
notes: as for B1
B19: GpH7-B3 variant A330_16H/GpL16-k0 (antibody, human IgG1, kappa)
heavy: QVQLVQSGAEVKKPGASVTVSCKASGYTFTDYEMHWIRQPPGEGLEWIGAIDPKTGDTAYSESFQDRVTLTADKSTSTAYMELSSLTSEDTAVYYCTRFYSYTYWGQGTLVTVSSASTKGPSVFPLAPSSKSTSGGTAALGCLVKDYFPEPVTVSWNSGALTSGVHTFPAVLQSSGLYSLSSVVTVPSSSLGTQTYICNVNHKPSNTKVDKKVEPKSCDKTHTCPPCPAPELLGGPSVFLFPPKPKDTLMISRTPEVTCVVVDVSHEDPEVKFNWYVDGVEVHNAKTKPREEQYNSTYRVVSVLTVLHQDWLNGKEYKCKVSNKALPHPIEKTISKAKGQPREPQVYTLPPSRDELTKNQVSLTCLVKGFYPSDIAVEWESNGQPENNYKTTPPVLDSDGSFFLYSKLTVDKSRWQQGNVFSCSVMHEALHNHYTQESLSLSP
light: B1 light
notes: as for B1
B20: GpH7-B3 variant S337_09D/GpL16-k0 (antibody, human IgG1, kappa)
heavy: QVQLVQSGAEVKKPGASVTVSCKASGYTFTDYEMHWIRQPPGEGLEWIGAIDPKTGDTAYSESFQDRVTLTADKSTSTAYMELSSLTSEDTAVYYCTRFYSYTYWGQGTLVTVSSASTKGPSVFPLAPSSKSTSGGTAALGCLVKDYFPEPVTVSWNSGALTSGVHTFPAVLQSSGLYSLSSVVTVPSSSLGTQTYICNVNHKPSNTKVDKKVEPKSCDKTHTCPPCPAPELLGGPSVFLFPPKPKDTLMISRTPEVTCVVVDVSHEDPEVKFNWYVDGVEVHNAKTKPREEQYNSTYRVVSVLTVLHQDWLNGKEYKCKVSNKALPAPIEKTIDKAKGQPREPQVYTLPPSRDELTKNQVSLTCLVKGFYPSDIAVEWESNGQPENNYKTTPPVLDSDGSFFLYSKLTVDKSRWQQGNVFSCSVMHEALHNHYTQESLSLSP
light: B1 light
notes: as for B1
B21: GpH7-B3 variant L235_15Y/GpL16-k0 (antibody, human IgG1, kappa)
heavy: not shown
light: B1 light
notes: as for B1
B22: GpH7-B3 variant L328_06M/GpL16-k0 (antibody, human IgG1, kappa)
heavy: not shown
light: B1 light
notes: as for B1
B23: GpH7-B3 variant Y296_16H/GpL16-k0 (antibody, human IgG1, kappa)
heavy: not shown
light: B1 light
notes: as for B1
B24: GpH7-B3 variant G236_03V/GpL16-k0 (antibody, human IgG1, kappa)
heavy: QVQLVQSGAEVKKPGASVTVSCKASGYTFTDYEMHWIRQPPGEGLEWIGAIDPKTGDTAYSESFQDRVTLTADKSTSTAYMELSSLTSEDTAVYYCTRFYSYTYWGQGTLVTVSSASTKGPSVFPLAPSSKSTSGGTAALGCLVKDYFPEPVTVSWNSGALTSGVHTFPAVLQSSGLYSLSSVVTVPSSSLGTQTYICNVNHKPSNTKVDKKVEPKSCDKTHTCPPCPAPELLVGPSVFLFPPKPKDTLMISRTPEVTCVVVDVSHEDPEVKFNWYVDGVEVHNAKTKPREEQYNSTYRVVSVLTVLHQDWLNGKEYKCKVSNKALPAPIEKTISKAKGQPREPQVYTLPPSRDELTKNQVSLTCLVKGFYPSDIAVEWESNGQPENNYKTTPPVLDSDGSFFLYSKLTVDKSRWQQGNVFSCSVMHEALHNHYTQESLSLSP
light: B1 light
notes: as for B1
B25: GpH7-B3 variant H268_19Q/GpL16-k0 (antibody, human IgG1, kappa)
heavy: not shown
light: B1 light
notes: as for B1
B26: GpH7-B3 variant V266_08L/GpL16-k0 (antibody, human IgG1, kappa)
heavy: not shown
light: B1 light
notes: as for B1
B27: GpH7-B3 variant S324_02A/GpL16-k0 (antibody, human IgG1, kappa)
heavy: not shown
light: B1 light
notes: as for B1
B28: GpH7-B3 variant I336_08L/GpL16-k0 (antibody, human IgG1, kappa)
heavy: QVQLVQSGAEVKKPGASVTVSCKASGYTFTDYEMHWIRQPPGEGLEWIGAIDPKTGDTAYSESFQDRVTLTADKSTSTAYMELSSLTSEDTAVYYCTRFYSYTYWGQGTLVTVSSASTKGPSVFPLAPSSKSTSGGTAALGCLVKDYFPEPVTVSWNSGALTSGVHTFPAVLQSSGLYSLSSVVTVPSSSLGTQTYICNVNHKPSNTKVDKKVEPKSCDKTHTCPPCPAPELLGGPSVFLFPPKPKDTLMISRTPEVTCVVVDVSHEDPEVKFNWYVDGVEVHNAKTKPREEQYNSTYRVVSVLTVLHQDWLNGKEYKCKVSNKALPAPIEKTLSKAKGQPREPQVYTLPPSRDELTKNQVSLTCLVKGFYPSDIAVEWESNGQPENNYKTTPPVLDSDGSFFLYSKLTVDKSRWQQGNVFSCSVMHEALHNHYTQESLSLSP
light: B1 light
notes: as for B1
B29: GpH7-B3 variant G236_07I/GpL16-k0 (antibody, human IgG1, kappa)
heavy: not shown
light: B1 light
notes: as for B1
B30: GpH7-B3 variant L235_20W/GpL16-k0 (antibody, human IgG1, kappa)
heavy: not shown
light: B1 light
notes: as for B1
B31: GpH7-B3 variant S267_02A/GpL16-k0 (antibody, human IgG1, kappa)
heavy: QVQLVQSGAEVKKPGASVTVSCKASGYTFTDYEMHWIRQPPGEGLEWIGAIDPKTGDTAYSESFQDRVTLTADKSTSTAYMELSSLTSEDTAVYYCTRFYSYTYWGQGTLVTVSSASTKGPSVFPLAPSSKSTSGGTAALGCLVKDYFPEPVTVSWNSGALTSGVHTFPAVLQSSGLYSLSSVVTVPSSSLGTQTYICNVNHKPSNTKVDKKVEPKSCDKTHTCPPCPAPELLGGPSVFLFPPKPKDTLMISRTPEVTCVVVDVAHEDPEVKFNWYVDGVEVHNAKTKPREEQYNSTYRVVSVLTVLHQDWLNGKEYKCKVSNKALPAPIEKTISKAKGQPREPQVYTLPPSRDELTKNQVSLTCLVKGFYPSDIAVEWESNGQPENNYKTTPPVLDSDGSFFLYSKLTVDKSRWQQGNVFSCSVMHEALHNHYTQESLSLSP
light: B1 light
notes: as for B1
B32: GpH7-B3 variant Y296_09D/GpL16-k0 (antibody, human IgG1, kappa)
heavy: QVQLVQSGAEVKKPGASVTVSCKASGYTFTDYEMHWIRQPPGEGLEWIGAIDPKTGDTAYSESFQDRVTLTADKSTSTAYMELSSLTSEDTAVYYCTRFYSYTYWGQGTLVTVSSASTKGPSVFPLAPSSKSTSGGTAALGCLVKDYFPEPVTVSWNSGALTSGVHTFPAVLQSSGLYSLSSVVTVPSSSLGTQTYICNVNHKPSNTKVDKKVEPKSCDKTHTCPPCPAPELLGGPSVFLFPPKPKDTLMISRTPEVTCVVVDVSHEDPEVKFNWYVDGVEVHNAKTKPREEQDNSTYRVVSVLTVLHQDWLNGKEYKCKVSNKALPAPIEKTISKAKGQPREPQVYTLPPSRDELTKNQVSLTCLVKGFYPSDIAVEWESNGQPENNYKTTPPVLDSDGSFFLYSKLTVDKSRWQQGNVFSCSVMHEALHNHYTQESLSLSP
light: B1 light
notes: as for B1
B33: GpH7-B3 variant K334_16H/GpL16-k0 (antibody, human IgG1, kappa)
heavy: not shown
light: B1 light
notes: as for B1
B34: GpH7-A5/GpH7-B3 variant Y300_04F/GpL16-k0 (antibody, human IgG1, kappa)
heavy 1: not shown
heavy 2: not shown
light: B1 light
notes: He Ab: alteration in the GpH7-B3 H chain only; also called He Ab
B35: GpH7-A5/GpH7-B3 variant Y296_19Q/GpL16-k0 (antibody, human IgG1, kappa)
heavy 1: not shown
heavy 2: not shown
light: B1 light
notes: as for B34
B36: GpH7-A5/GpH7-B3 variant Y296_16H/GpL16-k0 (antibody, human IgG1, kappa)
heavy 1: not shown
heavy 2: not shown
light: B1 light
notes: as for B34
B37: GpH7-A5/GpH7-B3 variant Y296_07I/GpL16-k0 (antibody, human IgG1, kappa)
heavy 1: not shown
heavy 2: not shown
light: B1 light
notes: as for B34
B38: GpH7-A5/GpH7-B3 variant Y296_10E/GpL16-k0 (antibody, human IgG1, kappa)
heavy 1: not shown
heavy 2: not shown
light: B1 light
notes: as for B34
B39: GpH7-A5/GpH7-B3 variant Y296_14T/GpL16-k0 (antibody, human IgG1, kappa)
heavy 1: not shown
heavy 2: not shown
light: B1 light
notes: as for B34
B40: GpH7-A5/GpH7-B3 variant Y296_18N/GpL16-k0 (antibody, human IgG1, kappa)
heavy 1: not shown
heavy 2: not shown
light: B1 light
notes: as for B34
B41: GpH7-A5/GpH7-B3 variant Y296_13S/GpL16-k0 (antibody, human IgG1, kappa)
heavy 1: not shown
heavy 2: not shown
light: B1 light
notes: as for B34
B42: GpH7-A5/GpH7-B3 variant Y296_09D/GpL16-k0 (antibody, human IgG1, kappa)
heavy 1: not shown
heavy 2: not shown
light: B1 light
notes: as for B34
B43: GpH7-A5/GpH7-B3 variant Y300_18N/GpL16-k0 (antibody, human IgG1, kappa)
heavy 1: not shown
heavy 2: not shown
light: B1 light
notes: as for B34

Assays:
[1] = target: FcγRIIa H (human FcγRIIa, allotype with His at position 131), extracellular domain with C-terminal His tag (human, UniProt P12318 34-217); experiment: SPR (Biacore), antibody captured on antigen peptide chip, FcγR as analyte; relative to HoCon Ab GpH7-B3/GpL16-k0 = 100
[2] = target: T1, FcγRIIa R (FcγRIIa, allotype R: Arg at …); experiment: SPR Biacore, antibody captured, FcgR analyte; vs HeCon Ab GpH7-A5/GpH7-B3/GpL16-k0 = 100
Procedure: (§1) The heterodimerized antibodies He Abs in which one of the H chains was introduced with an alteration were assayed for their binding activities to each activating FcγR and inhibitory FcγR according to the method described in Example 4. […] The activating FcγRs in FIGS. 26, 27, 28, and 29 are FcγRIa, FcγRIIa (R), FcγRIIa (H), and FcγRIIIa, respectively.
(§2) Analysis of interaction between objective antibody and the FcγR was carried out using Biacore T100 (GE Healthcare). HBS-EP+ (GE Healthcare) was used as the running buffer, and the measurement temperature was set to 25° C. Chips produced by immobilizing the antigen peptide by the amine coupling method to a Series S Sencor Chip CM5 (GE Healthcare), or alternatively, chips produced by allowing preliminarily biotinylated antigen peptides to interact with and immobilize onto a Series S Sensor Chip SA (certified) (GE Healthcare) were used. Antibodies of interest were captured onto an antigen peptide-immobilized chip, and allowed to interact to each FcγR diluted with running buffer. To regenerate and repeatedly use the chip, the antibodies captured on the chip were washed off by reacting 10 mM glycine-HCl, pH 1.5.

[3] = target: T2, FcγRIIb extracellular domain with …; experiment: as above
Procedure: as §1, §2

Binder	Ho/Con_2aH [1]	He/Con_2aR [2]	He/Con_2b [3]
B1	93.1 control = 100	–	–
B2	110 control = 100	–	–
B3	98 control = 100	–	–
B4	96.6 control = 100	–	–
B5	101 control = 100	–	–
B6	98.7 control = 100	–	–
B7	111 control = 100	–	–
B8	103 control = 100	–	–
B9	112 control = 100	–	–
B10	100 control = 100	–	–
B11	101 control = 100	–	–
B12	103 control = 100	–	–
B13	110 control = 100	–	–
B14	95 control = 100	–	–
B15	100 control = 100	–	–
B16	101 control = 100	–	–
B17	112 control = 100	–	–
B18	103 control = 100	–	–
B19	101 control = 100	–	–
B20	107 control = 100	–	–
B21	107 control = 100	–	–
B22	100 control = 100	–	–

Binder	Ho/Con_2aH [1]	He/Con_2aR [2]	He/Con_2b [3]
B23	85.7 control = 100	–	–
B24	111 control = 100	–	–
B25	102 control = 100	–	–
B26	91.5 control = 100	–	–
B27	102 control = 100	–	–
B28	101 control = 100	–	–
B29	101 control = 100	–	–
B30	112 control = 100	–	–
B31	120 control = 100	–	–
B32	99.9 control = 100	–	–
B33	101 control = 100	–	–
B34	–	108 control = 100	94.8 control = 100
B35	–	102 control = 100	89.3 control = 100
B36	–	105 control = 100	92.2 control = 100
B37	–	101 control = 100	84.3 control = 100
B38	–	103 control = 100	98 control = 100
B39	–	103 control = 100	88.2 control = 100
B40	–	104 control = 100	91.5 control = 100
B41	–	102 control = 100	86.3 control = 100
B42	–	106 control = 100	98.9 control = 100
B43	–	100 control = 100	82.7 control = 100
